System: K4 kissing-loop RNA reporter
Experiment: apparent KD of K4 kissing-loop reporter; higher = weaker reporter binding
Conditions: Eterna round: R107
Procedure: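 RNA-MaP round R107: designed RNA switches with theophylline, tryptophan, arginine or FMN aptamers are transcribed on-chip within common flanks. They are titrated with a labelled K4 kissing-loop RNA reporter in RNA-MaP buffer (100 mM Tris pH 7.5, 80 mM KCl, 4 mM MgCl2), without ligand or with the indicated ligand. Median apparent KD per design.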

[1] = input ligand: theophylline 20 uM
[2] = input ligand: tryptophan 2.4 mM
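Also: bound reporter read as fluorescence of individual clusters on recovered sequencing chips by microscopy, with normalized cluster intensities fitted with a binding model.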

Sequence	apparent KD of K4 kissing-loop reporter (input ligand: FMN 200 uM) [nM]	apparent KD of K4 kissing-loop reporter (input ligand: arginine 13.2 mM) [nM]	apparent KD of K4 kissing-loop reporter (input ligand: none) [nM]	apparent KD of K4 kissing-loop reporter [1] [nM]	apparent KD of K4 kissing-loop reporter [2] [nM]
AUCGAGCCCAUCGGUGAGUCAUUAGUUGAUACCAGAGCUAUUGGCCUCCCUUGGCAGCAAGUAAACCUGUUUAGUGAUGUUAAAC [theeternabot_exclusion_KL_Theo_A_15]	178	150	168	162	157
AUCGGGAAUACGGCCGCCACUAUAGAGGCGACUACAUACCACCACAGUGAUGUUGUGCUGACCAGUAGGACCGGGUAAAAUCGAU [theeternabot_exclusion_KL_Trp_B_49]	817	594	871	726	672
AUCGUUGUCUGAGGAUAUCGAUUAACUGUAGUGAUGUUACAGAAAAUUCAUAUAAUAUUUUCUAUUCGAGAAGGCAGACUACGUA [JR_ExcFMNB_Sub017]	167	135	144	139	144
AUCGUUGUCUGAGGAUAUCGGUUAACUGUAGUGAUGUUACAGAAAAUUCAUAUUAUAUUUUCUAUUCGAGAAGGCAGACUACGUA [JR_Nu3_ExcFMNB_Sub019]	203	141	160	145	157
AUCUCGGUAUCAGAUACCAGACUAUCGAUACCGAGUGUAUCGGGUAGUGAUGUUACCAUAGUCCCUUGGCAGCUGGUAGUUCAUA [Theo B SS t9c]	256	249	261	280	213
AUCUUGCAUUCGGCCGCCACUAUCGUGCAGUGAUGUUGCGCGAGUGACGCGUCCCGCAGUGCAGGUAGGACCGGGAAUGAUACCC [Erlazaar]	128	119	123	112	125
AUGAGGAACAGUGAUCCUACUCCAUGGGAAGGAGCGUAGGAUACUACAGGUAGGUCGCCCAGUGAUGUUGGGCGCGUGUUCUUGG [Ermaar]	116	114	115	161	113
AUGAGGAACAGUGAUCCUAUUCCAUGGGAAGGAGCGUAGGAUACUACAGGUAGGUCGCCCAGUGAUGUUGGGCGCGUGUUCUUGG [Soririza]	120	112	113	140	117
AUGCGCGCGGCGGCCGCCACUCGCAUGAGAGUGAUGUUCUCGCCGUGACCGUAAGGUCGCGGUGUGAGGACCGGGCCGGGCUGCG [#2 Same State - Tryptophan B Attempt #22 (HarryS)]	197	71.5	69.7	213	321
AUGCGCGUGCGAUGCAAAUCGCACGCGCAUCGAGGACCGGUACGGCCGCCACUCGCUCGCGCCGAGUGAUGUUCGGCCGGCGAAC [#2 Same State - Tryptophan A Attempt #6 (HarryS)]	258	243	269	327	565
AUGCGUUGCACGGCCGCCACUGAUAUUAUGCUUCAGGAUGCUUCUGAAAGUGAUGUUUUCAGAUCCAGGACCGGGUGCCAAGAUU [theeternabot_sameState_KL_Trp_B_17]	104	88.2	98.3	92.3	98.8
AUGCUUUUAAUAACACUAUAUACAACUGAAGGAGCGACAAUAAAGUCAGGUAGGUCGCAGAAUAAAUGAGUGAUGUUCAUUUUUA [JR_ExcArginiA_Sub009]	82.2	130	92.2	119	63.9
AUGGGCACGUCGGCCGCCACUACACGGUCCCGCGAGGGCCAGUGAUGUUGGUCGACGUGCCGUUGUAGGACCGGGACGUGGCUGU [Teatondi]	125	54.5	79	103	83.3
AUGGGUCCACGAAGGAGCGCCGUGGAGUGAUGUUCCGGUUAGAUCCAGUGAUGUUGGGCCCGGCAGGUAGGUCGCGUGGACUCAU [Exclusion Arginine B GF 23]	720	522	586	729	533
AUGUCUGAUAGCAGUGAUGUUGCUUCGGAUACCAGACGAGAUCAUGUCCCUUGGCAGCUGACACGGCACGUGCUAGGUUAGAUGG [whbob_Ex_Theo_A_th73]	121	115	111	94.7	115
AUGUCUGAUAGCAGUGAUGUUGCUUCGGAUACCAGACGCGAUCAUGUCCCUUGGCAGCUGACACGGCACGUGCUAGGUUAGAUGG [whbob_Ex_Theo_A_th74]	123	94.5	105	112	95.9
AUUAAUAACAGAGGAUAUGCAUUUUUAUUAUUUUUAAAUAUUAAAUGCAGUGAUGUUGCAUAUUAAGCAGAAGGCUGAUUUAUUU [JR_SSFMNB_Sub012]	117	271	211	279	147
AUUAAUAACUGAGGAUAUCGAAAUUAUGUAGUGAUGUUACUGUAAAUUCAAAUUUUCAUUUCUUAACGAGAAGGCAGAAUAAUUA [JR_ExcFMNB_Sub012]	173	185	115	200	86.8
AUUAAUUUCAGAGGAUAUCGUAUUAAUAUUUUAUCUAUCUAUAUAUGCAGUGAUGUUGCAAUAAUUCGAGAAGGCUGAUUUAUAA [JR_ExcFMNB_Sub009]	93.9	101	52.3	91.8	47.7
AUUCAGAUCUGAAGGAGCGCGUUAAGUCAAUGCUUCAUAGAGCAGUGAUGUUGCUCUGAAACGCAGGUAGGUCGCAGAUCUGACC [Arg B SS t17]	295	250	325	288	287
AUUCAUUUCAGAGGAUAUCGAAGGAGAGUGAUGUUCUCCCAUAGCCCAGUGAUGUUGGAAGCUAUUCGAGAAGGCUGUGGGUGGA [Same State FMN B GF 26]	178	270	271	222	216
AUUGUAUACUGAAGGAGCGAGUAGUGGAAACAUAAACUCAUUGCGAGUGAUGUUCGCAGUACUCAGGUAGGUCGCAGUAAUGGUA [Exclusion Arginine B Gf 9]	756	167	528	242	451

Sequence	apparent KD of K4 kissing-loop reporter (input ligand: FMN 200 uM) [nM]	apparent KD of K4 kissing-loop reporter (input ligand: arginine 13.2 mM) [nM]	apparent KD of K4 kissing-loop reporter (input ligand: none) [nM]	apparent KD of K4 kissing-loop reporter [1] [nM]	apparent KD of K4 kissing-loop reporter [2] [nM]
AUUUAAUGUAUAGAUUAUAUACAUUAUUCAGAGGAUAUGCAUUGAAGCAGAAGGCUGGAUGUAGUGAUGUUGCAAUUUUAAUUUA [JR_SSFMNA_Sub007]	205	247	218	299	143
AUUUAUUCGAGUGAUGUUCGUGUUUUUUCAGAGGAUAUGCGUAAUAGCAGAAGGCUGUUUUAUAUUAUAUUUUGAUUUUUUUAAA [JR_Nu_ExcFMNA_Sub025]	92.2	123	86.1	106	73.5
AUUUGCUAGAAAGGAUAUAUUAGCUUGGUCACCGCGUCCGAUGGUUAAACUUCGUGAGUGAUGUUCAUAGAAGGUUCAGCCUCGA [theeternabot_exclusion_KL_FMN_B_20]	155	122	146	138	124
AUUUUAAUCGCAGAUACCAGUCCAGAAUGAAUACUAUAGUGAUGUUAUAAUAAAGGGAAGGACCCUUGGCAGCUGUACUAUAUUA [AstrosSsTheB#9]	467	287	445	304	281
AUUUUAGAGUGAUGUUCUAAUUGAUCAGAUACCAGACAAUUAUAAGUCCCUUGGCAGCUGUAGCCGAUAAAUUUAUUUAAUUUAA [JR_SSTheophyA_Sub024]	229	275	302	373	225
AUUUUAGAGUGAUGUUCUAUUUGAUCAGAUACCAGACAAUUAUAAGUCCCUUGGCAGCUGUAGCCGAUAAAUUUAAUUAAUUUAA [JR_ExcTheophyA_Sub012]	132	223	158	205	130
AUUUUUUUAUCAGGAUAUUAGUGAUGGUUUUUUUUGUUAGUGAUGUUGAUAUUUGUUUUAUGUAUUUAAGAAGGGAUUGAGAUGU [tzzsullin]	120	41.2	56.9	64.4	84.2
AUUUUUUUGUCAGGAUAUUAGUGUUGGUUUGGUUUGUUAGUGAUGUUGAUAUUUGUUUUAUGUAUUUAAGAAGGGAUUUAGAUGU [zaahullin]	428	330	335	407	293
CAAUGAGUAUAAGAUGAUAUCAUCACAGAAGGAGCGAGUGAUAACUCAGGUAGGUCGCUGAAUUUGUCGAGUGAUGUUCGAUAGA [whbob_SS_Arginine_A_sa119]	209	173	204	188	182
CAAUGAGUUUAAGAUGAUAUCAUCACAGAAGGAGCGAGUGAUAACUCAGGUAGGUCGCUGAAUUUGUCGAGUGAUGUUCGAUAGA [whbob_SS_Arginine_A_sa120]	191	153	186	166	174
CACCCUGGACAAGGAUAUAUCAUGCGCCAAGGGCAGUGAUGUUGCCACAGGCUUGGGUCCAGUUCGAUAGAAGGUGUCUGGUAUU [theeternabot_sameState_KL_FMN_B_4]	203	174	244	159	183
CACGAUGAAUUCUCUAGGAGUGAUGUUUUUCGAGGACCGGUACGGCCGCCACUCGGACCACGAGCGUGGUAGCGGCGAAAAGACU [qpmullin]	782	464	629	443	1070
CACGAUGAAUUCUCUAGGAGUGAUGUUUUUCGAGGACCGGUACGGCCGCCACUCGGACGACGAGCGUGGUAGCGGGCUGAAGACU [iuullin]	521	205	1120	674	771
CAGACCACAGAGUGAUGUUCUGUGUCCGAAGGAGCGCGCGAGAGCGCAGGUAGGUCGCGGAUACAGUUGACGUACCUUCAAGACA [Arg A Ex t3]	193	179	205	230	219
CAGAUAACCUAGGAUACCAGCGUCGCUGACAGGUCGCUGGAGAAGUACAGUGAUGUUGUGCGCCCUUGGCAGCCUGUUUACACAG [theeternabot_exclusion_KL_Theo_B_32]	255	204	223	207	198
CAGCAGAGUGAUGUUCUGCUUACUGCGGAUACCAGCUUUGCCAGAGGCCCUUGGCAGCCGGGCGGCUCAGUGAUGUUGGGUUGUU [Same State Theophylline A GF 14]	234	140	186	208	167
CAGCGGAGUGAUGUUCUGCUUACUCCGGAUACCAGCUUCGCCAGAGGCCCUUGGCAGCCGGGCGGCUCAGUGAUGUUGGGUUGCU [Same State Theophylline A GF 16]	934	532	870	979	765
CAGGUCACAGAGUGAUGUUCUGUGUCCGAAGGAGCGAUGGUCGCAUCAGGUAGGUCGCGGAUACAGUUGAAGUCCUAUCUAGACG [#10 K4 Arginine A Exclusion]	143	111	119	123	134
CAUACGCAUGGAGGAUAUGAGAUUUCUCAUAUUAUUGUUUAUUCUCAGUGAUGUUGGGAUUUAAACUCAGAAGGCCAUGUGUAUG [Ex FMN B 9]	273	124	138	137	132
CAUACUUGCCGACCGCGGCACGCUAGUGAUACCAGUAACACCGUCUACCCUUGGCAGCACGAGAGAGUGAUGUUUUCAGCAGCCA [theeternabot_sameState_KL_Theo_A_3]	1030	722	982	736	857
CAUAGGAAACUAUGUAUCUCUCUGACUGAAGGAGCGCGUGAAAACGCAGGUAGGUCGCAGAAUUUAACAGAGAGUGAUGUUCUCU [Ex Arginine A K4 9]	310	259	319	277	258
